Key:
tf2h1_human GTF2H1 = tf2h1_human GTF2H1 (UniProt P32780)
cbp_human CREBBP = cbp_human CREBBP (UniProt Q92793)
cbp_human CREBBP, sequence (Q92793 whole entry, looked up): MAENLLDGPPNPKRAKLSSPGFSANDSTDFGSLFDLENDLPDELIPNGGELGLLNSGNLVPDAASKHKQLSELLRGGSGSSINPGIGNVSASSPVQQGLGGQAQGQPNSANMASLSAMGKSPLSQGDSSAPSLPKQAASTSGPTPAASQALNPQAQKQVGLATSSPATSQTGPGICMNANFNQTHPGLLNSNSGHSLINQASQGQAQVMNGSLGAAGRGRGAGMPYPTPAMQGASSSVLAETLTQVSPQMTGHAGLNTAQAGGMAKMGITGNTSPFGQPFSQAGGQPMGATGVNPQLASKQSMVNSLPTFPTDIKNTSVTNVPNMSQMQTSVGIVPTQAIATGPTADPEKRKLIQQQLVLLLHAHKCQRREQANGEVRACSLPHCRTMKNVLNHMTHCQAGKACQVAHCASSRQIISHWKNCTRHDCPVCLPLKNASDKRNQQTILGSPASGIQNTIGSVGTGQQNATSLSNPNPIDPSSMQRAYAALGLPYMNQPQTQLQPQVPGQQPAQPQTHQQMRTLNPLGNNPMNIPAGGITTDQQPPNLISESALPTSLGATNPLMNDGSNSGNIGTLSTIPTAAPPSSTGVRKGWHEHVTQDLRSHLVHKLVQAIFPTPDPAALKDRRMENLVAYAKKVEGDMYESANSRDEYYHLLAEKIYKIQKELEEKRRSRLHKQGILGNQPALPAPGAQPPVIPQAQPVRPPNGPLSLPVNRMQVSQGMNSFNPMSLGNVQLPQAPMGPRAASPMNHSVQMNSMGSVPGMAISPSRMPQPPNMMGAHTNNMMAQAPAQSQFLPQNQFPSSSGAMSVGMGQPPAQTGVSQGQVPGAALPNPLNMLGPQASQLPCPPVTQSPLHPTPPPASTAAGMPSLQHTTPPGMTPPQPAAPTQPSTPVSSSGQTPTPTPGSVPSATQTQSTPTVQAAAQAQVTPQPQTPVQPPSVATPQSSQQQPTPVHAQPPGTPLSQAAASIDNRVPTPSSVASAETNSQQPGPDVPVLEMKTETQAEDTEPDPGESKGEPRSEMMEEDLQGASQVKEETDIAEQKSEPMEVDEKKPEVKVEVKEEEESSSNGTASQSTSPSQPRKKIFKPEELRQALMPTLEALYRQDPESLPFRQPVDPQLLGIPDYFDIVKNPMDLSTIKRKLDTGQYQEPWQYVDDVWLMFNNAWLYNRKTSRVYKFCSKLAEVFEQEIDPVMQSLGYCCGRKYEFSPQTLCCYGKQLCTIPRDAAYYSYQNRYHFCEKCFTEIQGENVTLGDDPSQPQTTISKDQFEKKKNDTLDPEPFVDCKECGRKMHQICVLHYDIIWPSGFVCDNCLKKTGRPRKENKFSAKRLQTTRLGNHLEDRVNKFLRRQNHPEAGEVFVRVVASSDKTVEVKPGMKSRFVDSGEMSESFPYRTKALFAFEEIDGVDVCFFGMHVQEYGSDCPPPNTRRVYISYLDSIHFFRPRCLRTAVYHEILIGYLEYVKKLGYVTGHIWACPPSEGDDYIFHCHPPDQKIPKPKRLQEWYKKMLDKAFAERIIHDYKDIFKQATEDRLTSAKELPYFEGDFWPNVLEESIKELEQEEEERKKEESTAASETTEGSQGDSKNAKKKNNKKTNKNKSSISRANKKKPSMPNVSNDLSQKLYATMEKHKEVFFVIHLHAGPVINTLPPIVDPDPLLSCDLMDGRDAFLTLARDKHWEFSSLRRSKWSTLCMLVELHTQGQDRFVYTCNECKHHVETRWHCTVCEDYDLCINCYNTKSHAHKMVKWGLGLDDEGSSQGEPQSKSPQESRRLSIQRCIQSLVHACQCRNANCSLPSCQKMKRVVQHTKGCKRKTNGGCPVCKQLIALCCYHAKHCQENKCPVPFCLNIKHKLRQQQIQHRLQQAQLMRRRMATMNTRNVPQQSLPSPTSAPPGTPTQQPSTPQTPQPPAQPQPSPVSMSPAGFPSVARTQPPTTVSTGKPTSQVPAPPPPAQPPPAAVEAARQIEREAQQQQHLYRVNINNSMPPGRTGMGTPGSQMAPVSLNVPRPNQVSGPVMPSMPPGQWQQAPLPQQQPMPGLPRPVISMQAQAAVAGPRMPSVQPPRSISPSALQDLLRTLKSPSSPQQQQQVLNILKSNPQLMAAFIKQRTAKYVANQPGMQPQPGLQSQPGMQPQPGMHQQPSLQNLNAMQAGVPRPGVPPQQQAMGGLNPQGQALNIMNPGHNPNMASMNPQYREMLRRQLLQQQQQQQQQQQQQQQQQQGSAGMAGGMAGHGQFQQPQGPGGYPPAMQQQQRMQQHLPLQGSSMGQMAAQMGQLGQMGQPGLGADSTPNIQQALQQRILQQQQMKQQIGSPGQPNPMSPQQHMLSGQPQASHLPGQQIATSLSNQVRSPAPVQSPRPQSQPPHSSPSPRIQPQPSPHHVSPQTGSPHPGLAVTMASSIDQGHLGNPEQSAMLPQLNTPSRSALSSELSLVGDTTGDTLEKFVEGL

Krueppel-like factor 1 (Homo sapiens), Q13351 W73P, sequence (Q13351 whole entry W73P): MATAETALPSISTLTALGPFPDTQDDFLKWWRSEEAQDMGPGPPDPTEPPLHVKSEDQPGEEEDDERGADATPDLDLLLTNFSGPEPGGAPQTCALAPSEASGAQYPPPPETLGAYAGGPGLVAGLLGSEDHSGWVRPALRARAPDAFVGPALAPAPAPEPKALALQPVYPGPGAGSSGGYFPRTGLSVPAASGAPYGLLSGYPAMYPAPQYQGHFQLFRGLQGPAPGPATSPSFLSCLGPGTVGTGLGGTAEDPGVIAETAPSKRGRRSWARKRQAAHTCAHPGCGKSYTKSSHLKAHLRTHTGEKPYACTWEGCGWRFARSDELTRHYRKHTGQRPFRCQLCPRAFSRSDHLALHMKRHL
tf2h1_human GTF2H1, sequence (P32780 whole entry): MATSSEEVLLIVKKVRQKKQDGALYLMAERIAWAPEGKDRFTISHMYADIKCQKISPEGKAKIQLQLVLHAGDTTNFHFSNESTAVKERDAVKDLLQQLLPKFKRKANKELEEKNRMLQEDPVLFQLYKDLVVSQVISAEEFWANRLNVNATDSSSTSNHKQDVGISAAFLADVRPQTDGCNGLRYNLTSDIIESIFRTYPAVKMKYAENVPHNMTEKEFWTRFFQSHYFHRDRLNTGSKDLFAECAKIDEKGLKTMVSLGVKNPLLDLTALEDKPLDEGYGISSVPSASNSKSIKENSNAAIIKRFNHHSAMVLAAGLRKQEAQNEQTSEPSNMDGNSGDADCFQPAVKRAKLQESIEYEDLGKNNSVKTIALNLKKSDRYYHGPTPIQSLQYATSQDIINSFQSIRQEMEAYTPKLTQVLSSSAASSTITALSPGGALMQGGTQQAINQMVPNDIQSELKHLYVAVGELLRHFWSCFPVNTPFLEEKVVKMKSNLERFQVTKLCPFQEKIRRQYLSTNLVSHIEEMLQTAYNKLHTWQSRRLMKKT

- effect of a mutation on the interaction (tf2h1_human GTF2H1): disrupting interaction strength
- effect of a mutation on the interaction (cbp_human CREBBP): disrupting interaction strength
Substance: Krueppel-like factor 1 (Homo sapiens), Q13351 W73P

From IntAct's records for PubMed 21670263
